Biological target: hCXCR1 (human) (UniProt P25024)
Assay: cell-based or functional assay

Sequence of hCXCR1 (human) (P25024 whole entry): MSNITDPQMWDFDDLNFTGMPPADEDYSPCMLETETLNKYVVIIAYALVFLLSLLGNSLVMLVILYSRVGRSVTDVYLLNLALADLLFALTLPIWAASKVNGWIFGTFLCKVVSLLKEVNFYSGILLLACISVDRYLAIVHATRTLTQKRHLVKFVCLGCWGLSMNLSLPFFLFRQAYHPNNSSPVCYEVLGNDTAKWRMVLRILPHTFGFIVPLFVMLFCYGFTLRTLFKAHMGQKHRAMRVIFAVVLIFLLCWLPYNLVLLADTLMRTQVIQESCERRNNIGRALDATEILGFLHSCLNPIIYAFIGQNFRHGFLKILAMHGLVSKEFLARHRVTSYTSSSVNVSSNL

| Substance | EC50, agonist activity in an Aequorin assay | EC50, Aequorin assay |
| --- | --- | --- |
| biotinIL-8 (6-78) (from UniProt P10145 28-99) (ligand) | 6.1 nM |  |
| recombinant native IL-8 (from UniProt P10145 28-99) |  | 4.2 nM |
